From US20220143024A1, “METHODS OF USING IMIPRIDONES” (Board of Regents, The University of Texas System, priority 2019, published 2022)

Legend:
Assay in all cases: BioID-MS +ONC201
MRPL48 (human) = MRPL48 (human) (UniProt Q96GC5)
CDK5RAP1 (human) = CDK5RAP1 (human) (UniProt Q96SZ6)
UQCRB (human) = UQCRB (human) (UniProt P14927)
SFXN4 (human) = SFXN4 (human) (UniProt Q6P4A7)
MRPL10 (human) = MRPL10 (human) (UniProt Q7Z7H8)
MRPL45 (human) = MRPL45 (human) (UniProt Q9BRJ2)
NIPSNAP1 (human) = NIPSNAP1 (human) (UniProt Q9BPW8)
GRSF1 (human) = GRSF1 (human) (UniProt Q12849)
ALDH4A1 (human) = ALDH4A1 (human) (UniProt P30038)
ECSIT (human) = ECSIT (human) (UniProt Q9BQ95)
PYCR2 (human) = PYCR2 (human) (UniProt Q96C36)
MRRF (human) = MRRF (human) (UniProt Q96E11)
GBAS (human) = GBAS (human) (UniProt O75323)
MRPS23 (human) = MRPS23 (human) (UniProt Q9Y3D9)
COX4I1 (human) = COX4I1 (human) (UniProt P13073)
CARS2 (human) = CARS2 (human) (UniProt Q9HA77)
K1AA0564 (human) = K1AA0564 (human) (UniProt A3KMH1)
NADKD1 (human) = NADKD1 (human) (UniProt Q4G0N4)
NDUFAF7 (human) = NDUFAF7 (human) (UniProt Q7L592)
SUPV3L1 (human) = SUPV3L1 (human) (UniProt Q8IYB8)
AK3 (human) = AK3 (human) (UniProt Q9UIJ7)
ACAD9 (human) = ACAD9 (human) (UniProt Q9H845)
DCAKD (human) = DCAKD (human) (UniProt Q8WVC6)
ABCB7 (human) = ABCB7 (human) (UniProt O75027)
NFS1 (human) = NFS1 (human) (UniProt Q9Y697)
AIFM1 (human) = AIFM1 (human) (UniProt O95831)
MRPL47 (human) = MRPL47 (human) (UniProt Q9HD33)
T1MM44 (human) = T1MM44 (human) (UniProt O43615)
HSD17B8 (human) = HSD17B8 (human) (UniProt Q92506)
ABCB10 (human) = ABCB10 (human) (UniProt Q9NRK6)
ADCK3 (human) = ADCK3 (human) (UniProt Q8NI60)
FECH (human) = FECH (human) (UniProt P22830)
RTN4IP1 (human) = RTN4IP1 (human) (UniProt Q8WWV3)
MRPS28 (human) = MRPS28 (human) (UniProt Q9Y2Q9)
BCS1L (human) = BCS1L (human) (UniProt Q9Y276)
SUCLG1 (human) = SUCLG1 (human) (UniProt P53597)
MRPS24 (human) = MRPS24 (human) (UniProt Q96EL2)
MDH2 (human) = MDH2 (human) (UniProt P40926)
ABHD10 (human) = ABHD10 (human) (UniProt Q9NUJ1)
ALDH6A1 (human) = ALDH6A1 (human) (UniProt Q02252)
PITRM1 (human) = PITRM1 (human) (UniProt Q5JRX3)
PAM16 (human) = PAM16 (human) (UniProt Q9Y3D7)
QRSL1 (human) = QRSL1 (human) (UniProt Q9H0R6)
GTPBP3 (human) = GTPBP3 (human) (UniProt Q969Y2)
C7orf55 (human) = C7orf55 (human) (UniProt Q96HJ9)
NDUFV3 (human) = NDUFV3 (human) (UniProt P56181)
METTL17 (human) = METTL17 (human) (UniProt Q9H7H0)
HSPA1L (human) = HSPA1L (human) (UniProt P34931)
C2orf56 (human) = C2orf56 (human) (UniProt Q7L592)
COX5B (human) = COX5B (human) (UniProt P10606)
PIN1 (human) = PIN1 (human) (UniProt Q13526)

COX4I1 (human), sequence (P13073 23-169 limits assumed): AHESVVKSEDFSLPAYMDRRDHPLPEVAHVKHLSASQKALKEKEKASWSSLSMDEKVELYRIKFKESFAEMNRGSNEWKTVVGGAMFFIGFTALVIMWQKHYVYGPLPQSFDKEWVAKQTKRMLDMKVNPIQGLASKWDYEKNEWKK
ABHD10 (human), sequence (Q9NUJ1 53-306 limits assumed): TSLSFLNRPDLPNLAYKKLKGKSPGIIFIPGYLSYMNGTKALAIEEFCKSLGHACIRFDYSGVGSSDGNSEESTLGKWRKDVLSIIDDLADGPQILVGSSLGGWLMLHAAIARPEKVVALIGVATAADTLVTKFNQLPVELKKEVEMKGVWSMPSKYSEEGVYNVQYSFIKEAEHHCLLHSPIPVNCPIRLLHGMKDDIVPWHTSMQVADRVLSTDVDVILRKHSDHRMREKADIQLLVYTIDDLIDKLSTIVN
ACAD9 (human), sequence (Q9H845 38-621 limits assumed): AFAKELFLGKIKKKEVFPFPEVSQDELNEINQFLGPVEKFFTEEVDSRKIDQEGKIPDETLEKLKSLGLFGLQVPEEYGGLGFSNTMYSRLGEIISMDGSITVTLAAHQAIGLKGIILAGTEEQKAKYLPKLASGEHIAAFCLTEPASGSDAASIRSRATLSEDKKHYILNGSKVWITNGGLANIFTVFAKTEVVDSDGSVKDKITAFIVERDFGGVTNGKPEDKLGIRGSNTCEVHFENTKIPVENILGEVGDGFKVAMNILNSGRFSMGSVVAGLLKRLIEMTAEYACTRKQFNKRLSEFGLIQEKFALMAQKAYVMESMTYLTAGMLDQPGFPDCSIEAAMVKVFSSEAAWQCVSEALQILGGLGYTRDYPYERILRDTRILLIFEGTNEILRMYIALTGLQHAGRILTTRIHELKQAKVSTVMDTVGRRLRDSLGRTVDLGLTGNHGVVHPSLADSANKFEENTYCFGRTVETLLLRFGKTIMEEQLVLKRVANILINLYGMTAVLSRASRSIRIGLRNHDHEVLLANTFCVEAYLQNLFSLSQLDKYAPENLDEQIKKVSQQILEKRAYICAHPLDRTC
ABCB7 (human), sequence (O75027 23-752 limits assumed): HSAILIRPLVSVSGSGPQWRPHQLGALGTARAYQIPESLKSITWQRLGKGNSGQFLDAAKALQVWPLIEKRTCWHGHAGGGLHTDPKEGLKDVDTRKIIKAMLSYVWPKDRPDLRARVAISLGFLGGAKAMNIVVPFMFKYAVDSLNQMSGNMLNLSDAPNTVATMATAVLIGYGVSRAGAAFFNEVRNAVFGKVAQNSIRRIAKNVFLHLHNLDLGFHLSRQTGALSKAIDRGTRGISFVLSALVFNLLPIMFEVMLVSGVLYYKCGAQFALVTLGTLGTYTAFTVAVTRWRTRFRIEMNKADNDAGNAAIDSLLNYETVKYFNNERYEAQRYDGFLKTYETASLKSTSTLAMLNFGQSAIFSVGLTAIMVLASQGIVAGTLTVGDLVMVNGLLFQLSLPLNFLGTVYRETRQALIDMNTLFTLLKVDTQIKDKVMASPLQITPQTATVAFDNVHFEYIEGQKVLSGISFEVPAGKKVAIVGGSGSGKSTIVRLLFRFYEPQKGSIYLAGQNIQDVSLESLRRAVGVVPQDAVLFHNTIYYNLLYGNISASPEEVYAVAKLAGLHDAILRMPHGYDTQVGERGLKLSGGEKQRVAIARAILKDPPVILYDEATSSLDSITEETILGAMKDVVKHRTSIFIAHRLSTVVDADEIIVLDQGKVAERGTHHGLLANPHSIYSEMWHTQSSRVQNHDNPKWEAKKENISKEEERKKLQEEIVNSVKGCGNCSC
BCS1L (human), sequence (Q9Y276 2-419 limits assumed): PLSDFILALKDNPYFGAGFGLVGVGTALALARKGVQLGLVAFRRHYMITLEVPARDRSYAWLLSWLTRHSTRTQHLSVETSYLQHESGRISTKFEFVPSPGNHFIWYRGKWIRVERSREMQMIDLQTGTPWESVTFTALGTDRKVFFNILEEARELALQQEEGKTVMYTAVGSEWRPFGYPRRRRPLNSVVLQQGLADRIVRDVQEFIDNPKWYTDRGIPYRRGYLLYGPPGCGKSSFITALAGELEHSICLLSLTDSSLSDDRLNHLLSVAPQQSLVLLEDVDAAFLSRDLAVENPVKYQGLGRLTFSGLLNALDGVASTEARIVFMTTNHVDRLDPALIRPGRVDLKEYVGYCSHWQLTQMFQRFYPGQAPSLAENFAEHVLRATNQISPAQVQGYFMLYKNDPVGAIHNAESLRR
HSPA1L (human), sequence (P34931 whole entry): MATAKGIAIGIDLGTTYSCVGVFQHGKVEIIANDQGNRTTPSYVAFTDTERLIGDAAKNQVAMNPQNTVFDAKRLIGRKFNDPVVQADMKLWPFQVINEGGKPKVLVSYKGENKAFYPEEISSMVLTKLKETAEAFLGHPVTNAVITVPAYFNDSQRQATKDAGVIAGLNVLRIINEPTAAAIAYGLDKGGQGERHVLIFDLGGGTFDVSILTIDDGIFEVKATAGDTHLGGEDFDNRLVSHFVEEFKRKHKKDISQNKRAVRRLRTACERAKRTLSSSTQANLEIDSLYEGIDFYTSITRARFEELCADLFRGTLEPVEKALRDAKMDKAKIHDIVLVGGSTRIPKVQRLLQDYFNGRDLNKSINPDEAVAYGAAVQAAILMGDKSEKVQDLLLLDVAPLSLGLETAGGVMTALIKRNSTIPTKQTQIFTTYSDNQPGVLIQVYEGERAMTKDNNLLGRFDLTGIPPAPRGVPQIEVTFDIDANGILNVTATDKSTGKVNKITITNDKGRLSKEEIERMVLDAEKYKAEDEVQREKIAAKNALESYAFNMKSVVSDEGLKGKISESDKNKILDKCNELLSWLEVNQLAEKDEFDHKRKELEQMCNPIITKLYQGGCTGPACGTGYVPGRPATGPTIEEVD
ECSIT (human), sequence (Q9BQ95 49-431 limits assumed): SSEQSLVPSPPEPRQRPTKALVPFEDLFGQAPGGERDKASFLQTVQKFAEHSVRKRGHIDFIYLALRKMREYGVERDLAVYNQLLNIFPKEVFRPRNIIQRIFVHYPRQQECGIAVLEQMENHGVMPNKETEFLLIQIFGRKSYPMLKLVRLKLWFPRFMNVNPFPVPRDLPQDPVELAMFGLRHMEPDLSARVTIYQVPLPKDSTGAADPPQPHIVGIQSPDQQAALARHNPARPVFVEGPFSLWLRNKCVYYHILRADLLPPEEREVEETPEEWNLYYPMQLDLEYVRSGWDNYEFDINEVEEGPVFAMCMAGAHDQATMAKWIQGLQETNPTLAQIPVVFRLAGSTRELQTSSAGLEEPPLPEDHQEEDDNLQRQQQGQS
ADCK3 (human), sequence (Q8NI60 163-647 limits assumed): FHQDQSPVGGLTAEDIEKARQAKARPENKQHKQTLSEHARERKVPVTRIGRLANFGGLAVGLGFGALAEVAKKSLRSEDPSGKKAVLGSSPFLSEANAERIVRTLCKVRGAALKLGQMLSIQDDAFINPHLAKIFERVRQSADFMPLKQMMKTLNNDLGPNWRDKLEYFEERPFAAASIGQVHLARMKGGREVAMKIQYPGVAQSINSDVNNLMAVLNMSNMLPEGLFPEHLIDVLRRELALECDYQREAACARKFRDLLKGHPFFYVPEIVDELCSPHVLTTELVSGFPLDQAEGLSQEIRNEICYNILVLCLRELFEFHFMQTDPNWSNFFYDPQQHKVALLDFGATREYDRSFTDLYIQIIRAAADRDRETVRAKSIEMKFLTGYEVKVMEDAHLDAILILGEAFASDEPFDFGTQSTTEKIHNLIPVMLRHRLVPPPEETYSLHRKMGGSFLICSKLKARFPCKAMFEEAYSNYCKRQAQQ
CDK5RAP1 (human), sequence (Q96SZ6 34-601 limits assumed): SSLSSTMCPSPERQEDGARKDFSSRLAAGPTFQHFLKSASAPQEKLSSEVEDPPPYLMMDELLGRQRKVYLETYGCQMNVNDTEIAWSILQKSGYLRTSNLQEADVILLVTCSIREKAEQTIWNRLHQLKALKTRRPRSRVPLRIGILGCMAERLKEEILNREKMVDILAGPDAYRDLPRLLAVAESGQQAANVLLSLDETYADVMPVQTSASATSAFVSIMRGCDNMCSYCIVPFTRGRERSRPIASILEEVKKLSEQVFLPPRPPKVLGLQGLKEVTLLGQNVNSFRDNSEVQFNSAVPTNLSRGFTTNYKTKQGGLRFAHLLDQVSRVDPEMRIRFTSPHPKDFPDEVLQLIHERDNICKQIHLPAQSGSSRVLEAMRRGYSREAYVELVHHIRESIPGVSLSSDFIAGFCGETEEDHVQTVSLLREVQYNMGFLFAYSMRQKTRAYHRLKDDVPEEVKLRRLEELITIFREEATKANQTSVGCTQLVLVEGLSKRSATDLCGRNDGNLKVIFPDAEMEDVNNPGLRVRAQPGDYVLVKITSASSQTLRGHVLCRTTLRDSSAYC
NADKD1 (human), sequence (Q4G0N4 63-442 limits assumed): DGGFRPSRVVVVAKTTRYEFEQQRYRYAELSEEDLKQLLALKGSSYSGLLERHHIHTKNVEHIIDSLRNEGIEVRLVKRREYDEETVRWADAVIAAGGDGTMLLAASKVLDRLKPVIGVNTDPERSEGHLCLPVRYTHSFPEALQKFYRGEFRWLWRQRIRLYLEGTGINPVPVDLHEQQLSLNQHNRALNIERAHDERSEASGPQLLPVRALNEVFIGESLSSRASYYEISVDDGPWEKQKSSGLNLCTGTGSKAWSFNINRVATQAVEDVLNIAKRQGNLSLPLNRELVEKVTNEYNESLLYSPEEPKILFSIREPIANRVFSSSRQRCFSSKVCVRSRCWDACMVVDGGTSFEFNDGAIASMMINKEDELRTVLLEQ
GBAS (human), sequence (O75323 24-286 limits assumed): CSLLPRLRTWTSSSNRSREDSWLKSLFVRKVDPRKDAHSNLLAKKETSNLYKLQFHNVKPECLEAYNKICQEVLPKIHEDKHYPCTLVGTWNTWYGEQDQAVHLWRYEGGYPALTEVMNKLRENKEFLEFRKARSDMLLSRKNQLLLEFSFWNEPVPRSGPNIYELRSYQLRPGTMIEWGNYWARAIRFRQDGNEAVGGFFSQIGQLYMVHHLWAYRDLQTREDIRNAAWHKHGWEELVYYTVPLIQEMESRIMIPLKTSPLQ
NDUFV3 (human), sequence (P56181 35-108 limits assumed): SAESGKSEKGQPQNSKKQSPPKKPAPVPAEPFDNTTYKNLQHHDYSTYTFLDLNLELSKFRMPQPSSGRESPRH

FlagBirA-ClpP (WT) (from UniProt P06709 1-321; Q16740 57-277) (enzyme)
Log2 Fold change (vs control) (MRPL48 (human)): -4.17 log2 | Log2 Fold change (vs control) (CDK5RAP1 (human)): -4.17 log2 | Log2 Fold change (vs control) (UQCRB (human)): -4.7 log2 | Log2 Fold change (vs control) (SFXN4 (human)): -0.58 log2 | Log2 Fold change (vs control) (MRPL10 (human)): -4.46 log2 | Log2 Fold change (vs control) (MRPL45 (human)): -6.44 log2 | Log2 Fold change (vs control) (NIPSNAP1 (human)): -1.19 log2 | Log2 Fold change (vs control) (GRSF1 (human)): -6.34 log2 | Log2 Fold change (vs control) (ALDH4A1 (human)): -2.21 log2 | Log2 Fold change (vs control) (ECSIT (human)): -5.36 log2 | Log2 Fold change (vs control) (PYCR2 (human)): -0.21 log2 | Log2 Fold change (vs control) (MRRF (human)): -5.49 log2 | Log2 Fold change (vs control) (GBAS (human)): -2.79 log2 | Log2 Fold change (vs control) (MRPS23 (human)): -1.58 log2 | Log2 Fold change (vs control) (COX4I1 (human)): -2.74 log2 | Log2 Fold change (vs control) (CARS2 (human)): -0.21 log2 | Log2 Fold change (vs control) (K1AA0564 (human)): -0.71 log2 | Log2 Fold change (vs control) (NADKD1 (human)): -2.04 log2 | Log2 Fold change (vs control) (NDUFAF7 (human)): -1.89 log2 | Log2 Fold change (vs control) (SUPV3L1 (human)): -0.12 log2 | Log2 Fold change (vs control) (AK3 (human)): -1.05 log2 | Log2 Fold change (vs control) (ACAD9 (human)): -0.76 log2 | Log2 Fold change (vs control) (DCAKD (human)): -3.75 log2 | Log2 Fold change (vs control) (ABCB7 (human)): -0.45 log2 | Log2 Fold change (vs control) (NFS1 (human)): 0.55 log2 | Log2 Fold change (vs control) (AIFM1 (human)): -1.58 log2 | Log2 Fold change (vs control) (MRPL47 (human)): -4.52 log2 | Log2 Fold change (vs control) (T1MM44 (human)): -0.52 log2 | Log2 Fold change (vs control) (HSD17B8 (human)): -1.26 log2 | Log2 Fold change (vs control) (ABCB10 (human)): -0.24 log2 | Log2 Fold change (vs control) (ADCK3 (human)): -1.91 log2 | Log2 Fold change (vs control) (FECH (human)): -1.56 log2 | Log2 Fold change (vs control) (RTN4IP1 (human)): -1.5 log2 | Log2 Fold change (vs control) (MRPS28 (human)): -1.24 log2 | Log2 Fold change (vs control) (BCS1L (human)): -0.17 log2 | Log2 Fold change (vs control) (SUCLG1 (human)): -1.44 log2 | Log2 Fold change (vs control) (MRPS24 (human)): -4.81 log2 | Log2 Fold change (vs control) (MDH2 (human)): -0.24 log2 | Log2 Fold change (vs control) (ABHD10 (human)): -1.53 log2 | Log2 Fold change (vs control) (ALDH6A1 (human)): -3.81 log2 | Log2 Fold change (vs control) (PITRM1 (human)): -4.25 log2 | Log2 Fold change (vs control) (PAM16 (human)): -5.91 log2 | Log2 Fold change (vs control) (QRSL1 (human)): -2.9 log2 | Log2 Fold change (vs control) (GTPBP3 (human)): -2.58 log2 | Log2 Fold change (vs control) (C7orf55 (human)): -1.18 log2 | Log2 Fold change (vs control) (NDUFV3 (human)): -8.18 log2 | Log2 Fold change (vs control) (METTL17 (human)): -3.58 log2 | Log2 Fold change (vs control) (HSPA1L (human)): 0.5 log2 | Log2 Fold change (vs control) (C2orf56 (human)): -2.44 log2 | Log2 Fold change (vs control) (COX5B (human)): -5 log2 | Log2 Fold change (vs control) (PIN1 (human)): -0.11 log2
